Assay results as given in patent US20040023887A1 (published 2004).
Positions of bridges follow the written chain, without caps; N, C: chain ends. Chains are numbered I, II in the order given. No end group written: not given here.

Legend:
[1] = target: T1, human insulin receptor (HIR) (human, UniProt P06213-2 28-1370, limits assumed); assay: 125I-insulin competition on purified HIR
T1 construct: Also used for the WGA-purified recombinant human insulin receptor of the kinase assay

Insulin Receptor (IR) = Insulin Receptor (IR) (UniProt P06213 28-956, limits assumed); assay: BIAcore competition: IR pre-incubated with about 40 µM peptide, residual binding to immobilised insulin
Method: Flowcell-1 was used for background binding to correct for any non-specific binding. […] The surface was regenerated with 25 mM NaOH.

[2] = target: T2, human insulin receptor (HIR) (human, UniProt P06213-2 28-1370, limits assumed); assay: 125I-insulin competition on purified HIR
T2 construct: detergent-solubilised receptor

[3] = target: T3, soluble human insulin receptor-immunoglobulin heavy chain chimera (sIR-Fc) (human, UniProt P06213 28-956, limits assumed, Eu3+ (LANCE) labelled in the TR-FRET assays); assay: TR-FRET competition, label b-RP9, Eu-sIR-Fc
T3 construct: extracellular domain; also called HIR-immunoglobulin heavy chain chimera; not shown: immunoglobulin heavy chain constant domains

[4] = target: T3, soluble human insulin …; assay: FP competition, label FITC-RP9, sIR-Fc
[5] = target: T1, human insulin receptor (HIR); assay: radio-receptor assay, label 125I-insulin, HIR
[6] = target: T4, soluble HIR ectodomain (sIR) (human, UniProt P06213-2 28-944, limits assumed); assay: FP competition, label FITC-RP9, sIR
T4 construct: extracellular domain

[7] = target: T3, soluble human insulin …; assay: TR-FRET competition, label b-S175, Eu-sIR-Fc
[8] = target: T5, Soluble IGF-1R (R&D Systems, Cat. # 391-GR/CF) (human, UniProt P08069 31-935); assay: phage ELISA; IGF-1R ratio divided by IR ratio
T5 construct: extracellular domain; the precursor is cleaved into alpha and beta subunits; also called sIGF-1R

[9] = target: T6, Insulin receptor prepared according to Bass et al., 1996 (soluble IR-immunoglobulin chimera) (human, UniProt P06213 28-956); assay: phage ELISA, receptor coated on plate; A405 over non-fat milk
T6 construct: extracellular domain; also called sIR-Fc; soluble IR (Bass construct); not shown: immunoglobulin constant domains replacing the transmembrane and intracellular domains

[10] = target: T5, Soluble IGF-1R (R&D Systems, Cat. # …); assay: as above
[11] = target: T7, human insulin receptor (HIR), purified from transfected cells after solubilization with Triton X-100 (human, UniProt P06213-2 28-1370, limits assumed); assay: competition with 125I-insulin on solubilized HIR, PEG precipitation
T7 construct: mature

B1: S423 (peptide)
peptide 1: ESFYDWFERQLGK
peptide 2: ACAWPTYWNCG
modifications: not fully specified (bridges); cysteine pairing not given here; also: C-terminus of chain 2 linked to Lys13 of chain 1, bond at chain A 13 to a chain's C-terminus
Kd [1]: 62 nM

LCQSWGVRIGWLTGLCP [2A9]
% Binding (Insulin Receptor (IR)): 100% | Result (RUs) (Insulin Receptor (IR)): 128 RU

TFYSCLASLLTGTPQPNRGPWERCRKK [S327]
Kd [2]: 21 nM

VTFTSAVFHENFYDWFVRQVS [H2]
% Binding (Insulin Receptor (IR)): 27% | Result (RUs) (Insulin Receptor (IR)): 34.6 RU

B2: S442 (peptide)
peptide 1: ESFYDWFERQLGGGGK
peptide 2: AWVQCEVYGRGCPS
modifications: disulfide II:5-II:12 (inferred); also: bond at chain A 16 to a chain's C-terminus
Kd [1]: 160 nM

B3: S438 (peptide)
peptide 1: ESFYDWFERQLGGGGK
peptide 2: DQEWAWVQCEVYGRGCPS
modifications: not fully specified (bridges); cysteine pairing not given here; also: C-terminus of chain 2 linked to Lys16 of chain 1, bond at chain A 16 to a chain's C-terminus
Kd [1]: 30 nM

GSLDESFYDWFERQLGKK (also called S371) [RP9]
IC50 [3]: 42 nM | IC50 [4]: 10 nM | IC50 [5]: 44 nM | IC50 [6]: 0.03 nM | IC50 [7]: 6 nM

GSLDESFYDWFERQL [S395]
Kd [2]: 81 nM

DRAFYNGLRDLVGAVYGAWD [20C11]
% Binding (Insulin Receptor (IR)): 38% | Result (RUs) (Insulin Receptor (IR)): 49 RU

B4: B6L-3-G5-IR (peptide)
peptide: AETSAQVGWQRLWSVWPGDHWSTLDPFYHKLSELLRESGA
notes: library tags and phage coat protein not included
IGF-1R/IR ratio comparison [8]: 1.4 ratio | ratio over background (IR) [9]: 1.4 fold over background | ratio over background (IGF-1R) [10]: 2 fold over background

B5: S439 (peptide)
peptide 1: ESFYDWFERQLGGGGK
peptide 2: QEWAWVQCEVYGRGCPS
modifications: not fully specified (bridges); cysteine pairing not given here; also: C-terminus of chain 2 linked to Lys16 of chain 1, bond at chain A 16 to a chain's C-terminus
Kd [1]: 46 nM

B6: S441 (peptide)
peptide 1: ESFYDWFERQLGGGGK
peptide 2: WAWVQCEVYGRGCPS
modifications: not fully specified (bridges); cysteine pairing not given here; also: C-terminus of chain 2 linked to Lys16 of chain 1, bond at chain A 16 to a chain's C-terminus
Kd [1]: 120 nM

B7: S437 (peptide)
peptide 1: ESFYDWFERQLGGGGK
peptide 2: LDQEWAWVQCEVYGRGCPS
modifications: not fully specified (bridges); cysteine pairing not given here; also: C-terminus of chain 2 linked to Lys16 of chain 1, bond at chain A 16 to a chain's C-terminus
Kd [1]: 0.69 nM

B8: S443 (peptide)
peptide 1: ESFYDWFERQLGGGGK
peptide 2: WVQCEVYGRGCPS
modifications: not fully specified (bridges); cysteine pairing not given here; also: C-terminus of chain 2 linked to Lys16 of chain 1, bond at chain A 16 to a chain's C-terminus
Kd [1]: 170 nM

KWLDQEWAWVQCEVYGRGCPSKK [D8 (synthetic peptide)]
% Binding (Insulin Receptor (IR)): 33% | Result (RUs) (Insulin Receptor (IR)): 41.6 RU

B9: R20β-4-E8-IR (peptide)
peptide: VRGFQGGTVWPGYEWLRNAA
notes: tags and coat protein not included; Formula 10 (Group 6) clone
ratio over background (IR) [9]: 3.6 fold over background | ratio over background (IGF-1R) [10]: 34.9 fold over background

LDQEWAVQCEVYGRGCPSESFYDWFERQLG [S484]
Kd [1]: 87 nM

B10: S444 (peptide)
peptide 1: ESFYDWFERQLGGGGK
peptide 2: VQCEVYGRGCPS
modifications: not fully specified (bridges); cysteine pairing not given here; also: C-C branched: chain 2 C-terminus bonded to Lys16 side chain
Kd [1]: 190 nM

B11: 40F-4-B1-IGFR (peptide)
peptide: GLDHSDAVGVHLGFAWPAQARGRWEAGGLEDTWAGYDWL
notes: as for B9
ratio over background (IR) [9]: 0.2 fold over background | ratio over background (IGF-1R) [10]: 3 fold over background

B12: 40F-4-D1-IGFR (peptide)
peptide: LSCLAYSRHGIWRPSTDLGLGRSVGEGSVSTRWRGYDWFE
notes: as for B9
ratio over background (IR) [9]: 0.3 fold over background | ratio over background (IGF-1R) [10]: 4.6 fold over background

B13: S433 (peptide)
peptide 1: ESFYDWFERQLGGGGK
peptide 2: WLDQEWAWVQ
modifications: also: C-terminus of chain 2 linked to Lys16 of chain 1, bond at chain A 16 to a chain's C-terminus
Kd [1]: 110 nM

B14: S440 (peptide)
peptide 1: ESFYDWFERQLGGGGK
peptide 2: EWAWVQCEVYGRGCPS
modifications: not fully specified (bridges); cysteine pairing not given here; also: C-terminus of chain 2 linked to Lys16 of chain 1, bond at chain A 16 to a chain's C-terminus
Kd [1]: 99 nM

GIISQSCPESFYDWFAGQVSDPWWCW (also called G33) [S326]
Kd [2]: 590 nM

B15: S415 (peptide)
peptide: ESFYDWFERQLGKX
chain: ESFYDWFERQLGKX
modifications: not fully specified; C-terminus joined to chemical linker 23 of Table 3; C-C linked dimer
notes: Synthetic truncated RP9 homodimer
Kd [11]: 100 nM

B16: S432 (peptide)
peptide 1: ESFYDWFERQLGGGGK
peptide 2: CEVYGRGCPS
modifications: not fully specified (bridges); cysteine pairing not given here; also: C-terminus of chain 2 linked to Lys16 of chain 1, bond at chain A 16 to a chain's C-terminus
Kd [1]: 180 nM

B17: B6Hα-3-F1-IR (peptide)
peptide: CSMAAVAEAGDDDDPFYHKLSELCQGS
notes: as for B4
ratio over background (IR) [9]: 1.3 fold over background | ratio over background (IGF-1R) [10]: 2.4 fold over background
